Test results from article PMC10540216, “Activity Guided Azide-methyllysine Photo-trapping for Substrate Profiling of Lysine Demethylases” (Journal of the American Chemical Society, 2023).

B1: RPN1_HUMAN (protein, UniProt P04843 24-607, looked up)
Dolichyl-diphosphooligosacchar …: ASSEAPPLINEDVKRTVDLSSHLAKVTAEVVLAHLGGGSTSRATSFLLALEPELEARLAHLGVQVKGEDEEENNLEVRETKIKGKSGRFFTVKLPVALDPGAKISVIVETVYTHVLHPYPTQITQSEKQFVVFEGNHYFYSPYPTKTQTMRVKLASRNVESYTKLGNPTRSEDLLDYGPFRDVPAYSQDTFKVHYENNSPFLTITSMTRVIEVSHWGNIAVEENVDLKHTGAVLKGPFSRYDYQRQPDSGISSIRSFKTILPAAAQDVYYRDEIGNVSTSHLLILDDSVEMEIRPRFPLFGGWKTHYIVGYNLPSYEYLYNLGDQYALKMRFVDHVFDEQVIDSLTVKIILPEGAKNIEIDSPYEISRAPDELHYTYLDTFGRPVIVAYKKNLVEQHIQDIVVHYTFNKVLMLQEPLLVVAAFYILFFTVIIYVRLDFSITKDPAAEARMKVACITEQVLTLVNKRIGLYRHFDETVNRYKQSRDISTLNSGKKSLETEHKALTSEIALLQSRLKTEGSDLCDRVSEMQKLDAQVKELVLKSAVEAERLVAGKLKKDTYIENEKLISGKRQELVTKIDHILDAL
B2: FUS_HUMAN (protein, UniProt P35637 1-526, looked up)
RNA-binding protein FUS: MASNDYTQQATQSYGAYPTQPGQGYSQQSSQPYGQQSYSGYSQSTDTSGYGQSSYSSYGQSQNTGYGTQSTPQGYGSTGGYGSSQSSQSSYGQQSSYPGYGQQPAPSSTSGSYGSSSQSSSYGQPQSGSYSQQPSYGGQQQSYGQQQSYNPPQGYGQQNQYNSSSGGGGGGGGGGNYGQDQSSMSSGGGSGGGYGNQDQSGGGGSGGYGQQDRGGRGRGGSGGGGGGGGGGYNRSSGGYEPRGRGGGRGGRGGMGGSDRGGFNKFGGPRDQGSRHDSEQDNSDNNTIFVQGLGENVTIESVADYFKQIGIIKTNKKTGQPMINLYTDRETGKLKGEATVSFDDPPSAKAAIDWFDGKEFSGNPIKVSFATRRADFNRGGGNGRGGRGRGGPMGRGGYGGGGSGGGGRGGFPSGGGGGGGQQRAGDWKCPNPTCENMNFSWRNECNQCKAPKPDGPGGGPGGSHMGGNYGDDRRGGRGGYDRGGYRGRGGDRGGFRGGRGGGDRGGFGPGKMDSRGEHRQDRRERPY
B3: CDC5L_HUMAN (protein, UniProt Q99459 1-802, looked up)
Cell division cycle 5-like …: MPRIMIKGGVWRNTEDEILKAAVMKYGKNQWSRIASLLHRKSAKQCKARWYEWLDPSIKKTEWSREEEEKLLHLAKLMPTQWRTIAPIIGRTAAQCLEHYEFLLDKAAQRDNEEETTDDPRKLKPGEIDPNPETKPARPDPIDMDEDELEMLSEARARLANTQGKKAKRKAREKQLEEARRLAALQKRRELRAAGIEIQKKRKRKRGVDYNAEIPFEKKPALGFYDTSEENYQALDADFRKLRQQDLDGELRSEKEGRDRKKDKQHLKRKKESDLPSAILQTSGVSEFTKKRSKLVLPAPQISDAELQEVVKVGQASEIARQTAEESGITNSASSTLLSEYNVTNNSVALRTPRTPASQDRILQEAQNLMALTNVDTPLKGGLNTPLHESDFSGVTPQRQVVQTPNTVLSTPFRTPSNGAEGLTPRSGTTPKPVINSTPGRTPLRDKLNINPEDGMADYSDPSYVKQMERESREHLRLGLLGLPAPKNDFEIVLPENAEKELEEREIDDTYIEDAADVDARKQAIRDAERVKEMKRMHKAVQKDLPRPSEVNETILRPLNVEPPLTDLQKSEELIKKEMITMLHYDLLHHPYEPSGNKKGKTVGFGTNNSEHITYLEHNPYEKFSKEELKKAQDVLVQEMEVVKQGMSHGELSSEAYNQVWEECYSQVLYLPGQSRYTRANLASKKDRIESLEKRLEINRGHMTTEAKRAAKMEKKMKILLGGYQSRAMGLMKQLNDLWDQIEQAHLELRTFEELKKHEDSAIPRRLECLKEDVQRQQEREKELQHRYADLLLEKETLKSKF
B4: HXK2_HUMAN (protein, UniProt P52789 1-917, looked up)
Hexokinase-2: MIASHLLAYFFTELNHDQVQKVDQYLYHMRLSDETLLEISKRFRKEMEKGLGATTHPTAAVKMLPTFVRSTPDGTEHGEFLALDLGGTNFRVLWVKVTDNGLQKVEMENQIYAIPEDIMRGSGTQLFDHIAECLANFMDKLQIKDKKLPLGFTFSFPCHQTKLDESFLVSWTKGFKSSGVEGRDVVALIRKAIQRRGDFDIDIVAVVNDTVGTMMTCGYDDHNCEIGLIVGTGSNACYMEEMRHIDMVEGDEGRMCINMEWGAFGDDGSLNDIRTEFDQEIDMGSLNPGKQLFEKMISGMYMGELVRLILVKMAKEELLFGGKLSPELLNTGRFETKDISDIEGEKDGIRKAREVLMRLGLDPTQEDCVATHRICQIVSTRSASLCAATLAAVLQRIKENKGEERLRSTIGVDGSVYKKHPHFAKRLHKTVRRLVPGCDVRFLRSEDGSGKGAAMVTAVAYRLADQHRARQKTLEHLQLSHDQLLEVKRRMKVEMERGLSKETHASAPVKMLPTYVCATPDGTEKGDFLALDLGGTNFRVLLVRVRNGKWGGVEMHNKIYAIPQEVMHGTGDELFDHIVQCIADFLEYMGMKGVSLPLGFTFSFPCQQNSLDESILLKWTKGFKASGCEGEDVVTLLKEAIHRREEFDLDVVAVVNDTVGTMMTCGFEDPHCEVGLIVGTGSNACYMEEMRNVELVEGEEGRMCVNMEWGAFGDNGCLDDFRTEFDVAVDELSLNPGKQRFEKMISGMYLGEIVRNILIDFTKRGLLFRGRISERLKTRGIFETKFLSQIESDCLALLQVRAILQHLGLESTCDDSIIVKEVCTVVARRAAQLCGAGMAAVVDRIRENRGLDALKVTVGVDGTLYKLHPHFAKVMHETVKDLAPKCDVSFLQSEDGSGKGAALITAVACRIREAGQR
B5: CPSF6_HUMAN (protein, UniProt Q16630 1-551, looked up)
Cleavage and polyadenylation …: MADGVDHIDIYADVGEEFNQEAEYGGHDQIDLYDDVISPSANNGDAPEDRDYMDTLPPTVGDDVGKGAAPNVVYTYTGKRIALYIGNLTWWTTDEDLTEAVHSLGVNDILEIKFFENRANGQSKGFALVGVGSEASSKKLMDLLPKRELHGQNPVVTPCNKQFLSQFEMQSRKTTQSGQMSGEGKAGPPGGSSRAAFPQGGRGRGRFPGAVPGGDRFPGPAGPGGPPPPFPAGQTPPRPPLGPPGPPGPPGPPPPGQVLPPPLAGPPNRGDRPPPPVLFPGQPFGQPPLGPLPPGPPPPVPGYGPPPGPPPPQQGPPPPPGPFPPRPPGPLGPPLTLAPPPHLPGPPPGAPPPAPHVNPAFFPPPTNSGMPTSDSRGPPPTDPYGRPPPYDRGDYGPPGREMDTARTPLSEAEFEEIMNRNRAISSSAISRAVSDASAGDYGSAIETLVTAISLIKQSKVSADDRCKVLISSLQDCLHGIESKSYGSGSRRERSRERDHSRSREKSRRHKSRSRDRHDDYYRERSRERERHRDRDRDRDRERDREREYRHR
B6: AT2A2_HUMAN (protein, UniProt P16615 1-1042, looked up)
Sarcoplasmic/endoplasmic …: MENAHTKTVEEVLGHFGVNESTGLSLEQVKKLKERWGSNELPAEEGKTLLELVIEQFEDLLVRILLLAACISFVLAWFEEGEETITAFVEPFVILLILVANAIVGVWQERNAENAIEALKEYEPEMGKVYRQDRKSVQRIKAKDIVPGDIVEIAVGDKVPADIRLTSIKSTTLRVDQSILTGESVSVIKHTDPVPDPRAVNQDKKNMLFSGTNIAAGKAMGVVVATGVNTEIGKIRDEMVATEQERTPLQQKLDEFGEQLSKVISLICIAVWIINIGHFNDPVHGGSWIRGAIYYFKIAVALAVAAIPEGLPAVITTCLALGTRRMAKKNAIVRSLPSVETLGCTSVICSDKTGTLTTNQMSVCRMFILDRVEGDTCSLNEFTITGSTYAPIGEVHKDDKPVNCHQYDGLVELATICALCNDSALDYNEAKGVYEKVGEATETALTCLVEKMNVFDTELKGLSKIERANACNSVIKQLMKKEFTLEFSRDRKSMSVYCTPNKPSRTSMSKMFVKGAPEGVIDRCTHIRVGSTKVPMTSGVKQKIMSVIREWGSGSDTLRCLALATHDNPLRREEMHLEDSANFIKYETNLTFVGCVGMLDPPRIEVASSVKLCRQAGIRVIMITGDNKGTAVAICRRIGIFGQDEDVTSKAFTGREFDELNPSAQRDACLNARCFARVEPSHKSKIVEFLQSFDEITAMTGDGVNDAPALKKAEIGIAMGSGTAVAKTASEMVLADDNFSTIVAAVEEGRAIYNNMKQFIRYLISSNVGEVVCIFLTAALGFPEALIPVQLLWVNLVTDGLPATALGFNPPDLDIMNKPPRNPKEPLISGWLFFRYLAIGCYVGAATVGAAAWWFIAADGGPRVSFYQLSHFLQCKEDNPDFEGVDCAIFESPYPMTMALSVLVTIEMCNALNSLSENQSLLRMPPWENIWLVGSICLSMSLHFLILYVEPLPLIFQITPLNVTQWLMVLKISLPVILMDETLKFVARNYLEPGKECVQPATKSCSFSACTDGISWPFVLLIMPLVIWVYSTDTNFSDMFWS
B7: CX057_HUMAN (protein, UniProt Q6NSI4 1-855, looked up)
RPA-related protein RADX: MSGESGQPEAGPSHAGLDWPNPERNRAGVPGGVIRRAGSQGPRSWIQKVLEQIMDSPRQCVTPSEVVPVTVLAVQRYLLEDEPRDTVPKPPLYCYDVTISDGVYQEKCYLDPSLNSLVYQNILKVGIQMRISRVSCLYNEKRIGQGILCIDNVHCGETSDSISLETPFRNRAHQEKPERPLRGGKSHYLALWNNEDPYGDIWLTDKQPEEHNFSDTKIISLSHLEMTWTNRRNFPALLVRILHKSKLRYYGKPDKKMIEPYQTFLEVADSSGTVSVIMWNALCPEWYKSLRVGLVLLLQDYSVKKSYPFRIQPVPVDPQIKLISTMEICLNLRDPPTNIIIIPEKQVKPEWRLPKLNHRFTTRSELDDMPENCICDVIGLLVFVGRVQRSKKKENREDFWSYRWIHIADGTSEQPFIVELFSTSQPEIFENIYPMAYFVCTQLKVVRNDNQVPKLLYLTTTNESGVFITGHRGQPYTYDAKVKNFIQWIRTKSDSGEQKNMVIGGYYPYPPVPETFSKYSSSIKVESLLTAISEVRKEIEDLQYREQKRIAIQGIITAIKYIPHSSATESASASETLRNANRPSTSQAARVEIQERNGKRHQDDEPVNSQYFQTTSTNLSLSNKIRILQGPHANPVAVPQPGASVQTKGIKPGMPSIFNRRANINANLQGKARKTISDRWESQLWREKKFGLIDHLHYSRVYPESIPRKFMFEHRKFLSDQYNSQPAKYVPPEGRPPKLDDFKSARSLGHFEVTILGLNHEIAIDVAFLPMYCPEDIRTSQIDTLLTSMNYSCAYPQDTTGNDRLPGPRAVAGDIIKAATELDRVHIVGILDICNLGNNKVEVYLHKIYSPENTS
B8: CALD1_HUMAN (protein, UniProt Q05682 1-793, looked up)
Caldesmon: MDDFERRRELRRQKREEMRLEAERIAYQRNDDDEEEAARERRRRARQERLRQKQEEESLGQVTDQVEVNAQNSVPDEEAKTTTTNTQVEGDDEAAFLERLARREERRQKRLQEALERQKEFDPTITDASLSLPSRRMQNDTAENETTEKEEKSESRQERYEIEETETVTKSYQKNDWRDAEENKKEDKEKEEEEEEKPKRGSIGENQVEVMVEEKTTESQEETVVMSLKNGQISSEEPKQEEEREQGSDEISHHEKMEEEDKERAEAERARLEAEERERIKAEQDKKIADERARIEAEEKAAAQERERREAEERERMREEEKRAAEERQRIKEEEKRAAEERQRIKEEEKRAAEERQRIKEEEKRAAEERQRARAEEEEKAKVEEQKRNKQLEEKKHAMQETKIKGEKVEQKIEGKWVNEKKAQEDKLQTAVLKKQGEEKGTKVQAKREKLQEDKPTFKKEEIKDEKIKKDKEPKEEVKSFMDRKKGFTEVKSQNGEFMTHKLKHTENTFSRPGGRASVDTKEAEGAPQVEAGKRLEELRRRRGETESEEFEKLKQKQQEAALELEELKKKREERRKVLEEEEQRRKQEEADRKLREEEEKRRLKEEIERRRAEAAEKRQKMPEDGLSDDKKPFKCFTPKGSSLKIEERAEFLNKSVQKSSGVKSTHQAAIVSKIDSRLEQYTSAIEGTKSAKPTKPAASDLPVPAEGVRNIKSMWEKGNVFSSPTAAGTPNKETAGLKVGVSSRINEWLTKTPDGNKSPAPKPSDLRPGDVSSKRNLWEKQSVDKVTSPTKV
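Also: lysates from HEK293T cells pretreated with a KDM4 inhibitor to raise proteome methylation, affinity-purified after ±UV, gel-resolved, trypsin-digested, with exclusive unique peptides per protein averaged per condition.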

The molecules below were run on KDM4A-I71AzF (assay: CASI: photo-crosslinking with HEK293T cell extracts, StrepTactin enrichment and LC-MS/MS proteomics). Details: sheet "Final results but with 0.01".
Assay type: binding, human
In the case of B1, the “Fold change (+UV/-UV)” value is reported as 3.
With B2 the “Fold change (+UV/-UV)” value was 0.5.
With B3 the “Fold change (+UV/-UV)” value was 0.
In the case of B4, the “Fold change (+UV/-UV)” value is reported as 0.7273.
In the case of B5, the “Fold change (+UV/-UV)” value is reported as 0.875.
B6 was tested, and the “Fold change (+UV/-UV)” value was 0.75.
For B7, the “Fold change (+UV/-UV)” value was 0.
With B8 the “Fold change (+UV/-UV)” value was 1.5.
